Reference: patent US20250121063A1, “COMPOSITIONS OF […] RESISTANCE TO P[…] RELATED METHODS OF USE” (priority 2023, published 2025)
“Also recorded” adds a separate entry of the source.

What was measured:
P14 CD8+CD45.2+ T-cells = type: cell-based, mouse
B16-OVA melanoma = assay: Adoptive transfer of shRNA-transduced OT-1 cells into mice bearing B16-OVA melanoma; type: in vivo, mouse; conditions: compared with shFF or HBSS
Excerpt: Referring to FIG. 1, this indicates a normal mouse CD8+ treated with a construct expressing: control short hairpin RNA (shFF) or short hairpin RNA against mouse PTGIR gene. OT-1 is an anti-OVA T cell receptor that recognizes ovalbumin epitope (OVA) antigen variant E1 ([…]) restricted by H2-Kb. Mouse T cells that constitutively express OT-1 (“OT-1 cells”) were transduced with a construct expressing short hairpin RNA against mouse Ptgir gene (“shPTGIR”) or control short hairpin RNA (“shFF”; against firefly luciferase).
At day 0, mice were inoculated with […] B16-OVA melanoma cells (these cells constitutively express the OVA protein and present OVA epitopes on cell surface MHC). On Day 7 mice received (i.v.) 1E6 adoptively transferred gene modified OT-1 cells or Hank's buffered saline solution (HBSS).
At day 0, mice inoculated with B16-OVA melanoma. On Day 7 mice received adoptively transferred, gene modified CD8+ cells on Day 7 or saline (HBSS).
Referring to FIG. 2, this example was performed in the same way as Example 2.

[1] = system: LCMV (Lymphocytic choriomeningitis) clone 13; conditions: mouse, in vivo

B1: shPTGIR (nucleic acid)
DNA: AGCACGAGAGGAUGAAGUUUACUAGUGAAGCCACAGAUGUAGUAAACUUCAUCCUCUCGUGCC
modifications: expressed or natural sequence
- IFNγ and TNFα response to antigen stimulation (P14 CD8+CD45.2+ T-cells): capable of responding to antigen stimulation
- tumor growth (B16-OVA melanoma; 1E6 gene modified OT-1 cells i.v. on Day 7 after B16-OVA inoculation): reduced tumor growth
- survival (B16-OVA melanoma; mice with B16-OVA melanoma, OT-1 cells transferred Day 7): increased survival
- LAG-3 expression [1]: lower LAG-3 expression
- absolute abundance of transduced CD45.2 T-cells [1]: higher absolute abundance; also recorded: greater absolute numbers
- expansion of adoptively transferred cells (CD45.2+) [1]: highly significant expansion
- percentage of Tim-3 [1]: lower percentage of Tim-3
- phenotypic markers of exhaustion [1]: reduced phenotypic markers of exhaustion
